B1: WEE1 (parent)
chain: INPFTPDSLLLHSSGQCRRRKRTY

Variants of: B1
Assay: protein stability index of a GFP-peptide fusion (GPS, HEK-293T) (PSI 1-6); higher = more stable
Conditions: c terminus: a fixed tail appended
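Also: lentivirally expressed fusions sorted by FACS into six bins by GFP to DsRed ratio, PSI derived from sequencing read proportions per bin multiplied by bin number.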

Protein stability index of substitutions, site by site:
P6: G 3.58; W 2.21; Q 3.09; D 3.87; M 2.52
R20: F 2.48; P 3.12; E 3.15; A 3.08; L 2.75; Y 2.61; M 2.85; C 2.5; H 3.62; G 3.41; D 3.12; Q 2.81; W 1.82; S 2.97; I 2.95
S13: Y 3.29; N 3.74; W 2.54; F 2.3; I 2.85; C 2.21; M 2.84; V 2.61; R 3.12; L 2.64; E 4.01; A 2.6; H 4.14; P 3.63; D 4.08
S14: I 3.16; C 2.41; A 3.3; G 2.82; R 3.81; H 2.93; N 3.61; L 2.35; D 3.94; V 2.62; Y 2.36; E 4.31; W 2.46; Q 3.89; F 2.51
F4: A 4.11; P 4.58; L 3.2; Q 4.22; H 4.25; I 3.79; E 4.48; D 3.99; M 4.04; Y 3.31; R 3.77
C17: W 3.35; V 3.22; Q 4.4; R 3.16; G 3.69; D 4.42; N 3.85; A 3.64; I 4.01; L 4
L11: G 3.95; W 2.99; C 3.75; Q 3.39; A 3.76; P 4.55; K 4.2; V 3.04; T 3.54; E 4.42; I 3.97
Y24: V 3.95; F 3.12; T 3.96; H 3.75; S 4.45; M 3.48; I 3.01; N 3.75; G 4.07; C 3.8; K 4.27; L 3.04; Q 3.69; E 3.13
I1: Q 3.95; T 3.87; P 4.36; G 3.81; N 4.17; E 3.6; A 4.07; S 3.52; V 3.55; Y 3.05; R 4.02; K 3.62; F 2.73
N2: Q 3.57; W 2.39; E 3.93; L 2.37; P 3.29; F 2.35; C 3.69; I 2.36; A 3.09; K 2.83; M 3.08; Y 2.55; D 4.16
R22: S 3.31; T 3.45; P 3.23; Q 3.19; D 3.37; F 2.71; V 2.8; H 3.5; L 2.92; A 3.67; E 3.1; C 3.17; M 3.08; N 3.91; I 3.11
T23: D 4.11; L 3.5; S 3.93; W 2.79; P 3.26; A 3.79; V 3.06; R 3.56; I 2.78; C 2.7; M 3.6; Y 3.38; K 4.29; F 3.36
R18: Q 3.63; M 2.81; D 3.78; V 3.83; W 2.29; G 3.31; F 2.9; C 2.94; H 3.39; L 3.2; Y 3.58; S 3.41; P 3.57; K 3.26; T 3.48; A 3.46
